# Columns and labels:
# 4H568-AA = molecular target: T1, 4H568-AA; test: two-hybrid library CCmax;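 further: natural log of median RNA to DNA barcode read ratio; higher means stronger binding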
# T1 chain: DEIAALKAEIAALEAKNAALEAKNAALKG
# 4H687-AA = molecular target: T2, 4H687-AA; test: two-hybrid library CCmax; details: mean of both orientations;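 further: natural log of median RNA to DNA barcode read ratio; higher means stronger binding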
# T2 chain: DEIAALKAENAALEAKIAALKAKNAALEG
# 4H717-AA = molecular target: T3, 4H717-AA; test: two-hybrid library CCmax; details: mean of both orientations;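 further: natural log of median RNA to DNA barcode read ratio; higher means stronger binding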
# T3 chain: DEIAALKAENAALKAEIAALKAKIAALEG
# 4H797-AA = molecular target: T4, 4H797-AA; test: two-hybrid library CCmax; details: mean of both orientations;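 further: natural log of median RNA to DNA barcode read ratio; higher means stronger binding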
# T4 chain: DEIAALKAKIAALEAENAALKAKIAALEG
# 4H883-AA = molecular target: T5, 4H883-AA; test: two-hybrid library CCmax; details: mean of both orientations
# T5 chain: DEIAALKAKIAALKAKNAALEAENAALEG
# 4H918-AA = molecular target: T6, 4H918-AA; test: two-hybrid library CCmax; details: mean of both orientations
# T6 chain: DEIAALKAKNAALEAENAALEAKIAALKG
# 4H953-AA = molecular target: T7, 4H953-AA; test: two-hybrid library CCmax; details: mean of both orientations
# T7 chain: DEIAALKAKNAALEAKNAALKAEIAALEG
# 4H967-AA = molecular target: T8, 4H967-AA; test: two-hybrid library CCmax; details: mean of both orientations
# T8 chain: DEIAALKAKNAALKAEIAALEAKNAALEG
# 4H2760-bA = molecular target: T9, 4H2760-bA; test: two-hybrid library CCNG1
# T9 chain: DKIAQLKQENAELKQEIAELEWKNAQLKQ
# 4H2760-bN = molecular target: T10, 4H2760-bN; test: two-hybrid library CCNG1
# T10 chain: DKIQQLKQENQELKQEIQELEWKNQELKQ
# 4H2859-bA = molecular target: T11, 4H2859-bA; test: two-hybrid library CCNG1
# T11 chain: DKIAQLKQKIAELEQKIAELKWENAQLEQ
# 4H2931-bA = molecular target: T12, 4H2931-bA; test: two-hybrid library CCNG1
# T12 chain: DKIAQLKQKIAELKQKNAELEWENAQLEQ
# 4H3041-bA = molecular target: T13, 4H3041-bA; test: two-hybrid library CCNG1
# T13 chain: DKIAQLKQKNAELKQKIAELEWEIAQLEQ
# 4H3297-bA = molecular target: T14, 4H3297-bA; test: two-hybrid library CCNG1
# T14 chain: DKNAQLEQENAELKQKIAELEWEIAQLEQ
# 4H3364-bA = molecular target: T15, 4H3364-bA; test: two-hybrid library CCNG1
# T15 chain: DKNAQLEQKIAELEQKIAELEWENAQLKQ
# 4H3381-bA = molecular target: T16, 4H3381-bA; test: two-hybrid library CCNG1
# T16 chain: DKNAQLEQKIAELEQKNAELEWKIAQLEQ
# 4H349-bA = molecular target: T17, 4H349-bA; test: two-hybrid library CCNG1
# T17 chain: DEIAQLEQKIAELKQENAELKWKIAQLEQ
# 4H56-bA = molecular target: T18, 4H56-bA; test: two-hybrid library CCNG1
# T18 chain: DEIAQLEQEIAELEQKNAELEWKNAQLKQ
# 4H626-bA = molecular target: T19, 4H626-bA; test: two-hybrid library CCNG1
# T19 chain: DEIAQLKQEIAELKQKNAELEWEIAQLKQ
# 4H730-bA = molecular target: T20, 4H730-bA; test: two-hybrid library CCNG1
# T20 chain: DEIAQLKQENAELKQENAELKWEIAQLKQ
# 4H796-bA = molecular target: T21, 4H796-bA; test: two-hybrid library CCNG1
# T21 chain: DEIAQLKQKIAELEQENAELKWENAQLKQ
# 4H932-bA = molecular target: T22, 4H932-bA; test: two-hybrid library CCNG1
# T22 chain: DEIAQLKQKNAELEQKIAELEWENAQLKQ
# 4H949-bA = molecular target: T23, 4H949-bA; test: two-hybrid library CCNG1
# T23 chain: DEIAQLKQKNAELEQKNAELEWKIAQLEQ
# 4H967-bN = molecular target: T24, 4H967-bN; test: two-hybrid library CCNG1
# T24 chain: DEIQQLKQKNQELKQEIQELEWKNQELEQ
# P7SHb = molecular target: T25, P7SHb; test: two-hybrid library CCNG1
# T25 chain: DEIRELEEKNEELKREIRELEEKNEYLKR
# 4H2692-bA = molecular target: T26, 4H2692-bA; test: two-hybrid library CCNG1
# T26 chain: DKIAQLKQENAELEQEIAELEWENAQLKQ
# 4H2717-bA = molecular target: T27, 4H2717-bA; test: two-hybrid library CCNG1
# T27 chain: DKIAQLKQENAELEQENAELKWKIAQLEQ
# 4H2839-bA = molecular target: T28, 4H2839-bA; test: two-hybrid library CCNG1
# T28 chain: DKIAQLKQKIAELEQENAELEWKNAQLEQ
# 4H2859-bH = molecular target: T29, 4H2859-bH; test: two-hybrid library CCNG1
# T29 chain: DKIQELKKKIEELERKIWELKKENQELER
# 4H2915-bA = molecular target: T30, 4H2915-bA; test: two-hybrid library CCNG1
# T30 chain: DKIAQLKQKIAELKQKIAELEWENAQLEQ
# 4H3057-bA = molecular target: T31, 4H3057-bA; test: two-hybrid library CCNG1
# T31 chain: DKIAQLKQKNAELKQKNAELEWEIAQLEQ
# 4H319-bA = molecular target: T32, 4H319-bA; test: two-hybrid library CCNG1
# T32 chain: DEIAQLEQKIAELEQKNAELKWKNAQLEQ
# 4H319-bN = molecular target: T33, 4H319-bN; test: two-hybrid library CCNG1
# T33 chain: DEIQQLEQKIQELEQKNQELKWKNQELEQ
# 4H3277-bA = molecular target: T34, 4H3277-bA; test: two-hybrid library CCNG1
# T34 chain: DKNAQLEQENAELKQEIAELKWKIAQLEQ
# 4H3298-bA = molecular target: T35, 4H3298-bA; test: two-hybrid library CCNG1
# T35 chain: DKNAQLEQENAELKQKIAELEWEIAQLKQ
# 4H348-bA = molecular target: T36, 4H348-bA; test: two-hybrid library CCNG1
# T36 chain: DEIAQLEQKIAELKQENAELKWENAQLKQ
# 4H40-bA = molecular target: T37, 4H40-bA; test: two-hybrid library CCNG1
# T37 chain: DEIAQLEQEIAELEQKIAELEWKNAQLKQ
# 4H477-bA = molecular target: T38, 4H477-bA; test: two-hybrid library CCNG1
# T38 chain: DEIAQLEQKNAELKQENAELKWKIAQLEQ
# 4H492-bA = molecular target: T39, 4H492-bA; test: two-hybrid library CCNG1
# T39 chain: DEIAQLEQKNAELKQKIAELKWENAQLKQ
# 4H741-bA = molecular target: T40, 4H741-bA; test: two-hybrid library CCNG1
# T40 chain: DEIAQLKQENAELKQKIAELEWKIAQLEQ
# O6-bP = molecular target: T41, O6-bP; test: two-hybrid library CCNG1
# T41 chain: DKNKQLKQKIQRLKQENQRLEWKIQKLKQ
# P2-AA-1HAA-D = molecular target: T42, P2-AA-1HAA-D; test: two-hybrid library CCmax; details: mean of both orientations
# T42 chain: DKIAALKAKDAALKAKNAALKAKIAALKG
# P2-AA-1HAA-E = molecular target: T43, P2-AA-1HAA-E; test: two-hybrid library CCmax; details: mean of both orientations
# T43 chain: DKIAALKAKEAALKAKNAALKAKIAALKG
# P2-AA-1HAA-I = molecular target: T44, P2-AA-1HAA-I; test: two-hybrid library CCmax; details: mean of both orientations
# T44 chain: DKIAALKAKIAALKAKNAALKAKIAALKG
# P2-AA-1HAA-R = molecular target: T45, P2-AA-1HAA-R; test: two-hybrid library CCmax; details: mean of both orientations
# T45 chain: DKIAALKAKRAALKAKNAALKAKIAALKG
# P2-AA-1HAA-T = molecular target: T46, P2-AA-1HAA-T; test: two-hybrid library CCmax; details: mean of both orientations
# T46 chain: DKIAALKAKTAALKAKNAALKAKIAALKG
# P2-AA-1HAA-V = molecular target: T47, P2-AA-1HAA-V; test: two-hybrid library CCmax; details: mean of both orientations
# T47 chain: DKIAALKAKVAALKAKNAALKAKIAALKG
# P2-AA = molecular target: T48, P2-AA; test: two-hybrid library CCmax; details: mean of both orientations
# T48 chain: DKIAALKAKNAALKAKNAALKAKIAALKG
# 4H3172-bN = molecular target: T49, 4H3172-bN; test: two-hybrid library CCNG1
# T49 chain: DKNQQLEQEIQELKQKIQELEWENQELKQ
# 4H3414-bN = molecular target: T50, 4H3414-bN; test: two-hybrid library CCNG1
# T50 chain: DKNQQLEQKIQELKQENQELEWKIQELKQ
# 4H3631-bN = molecular target: T51, 4H3631-bN; test: two-hybrid library CCNG1
# T51 chain: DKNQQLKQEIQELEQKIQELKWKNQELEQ
# 4H3638-bN = molecular target: T52, 4H3638-bN; test: two-hybrid library CCNG1
# T52 chain: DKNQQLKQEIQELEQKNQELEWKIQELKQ
# 4H3817-bN = molecular target: T53, 4H3817-bN; test: two-hybrid library CCNG1
# T53 chain: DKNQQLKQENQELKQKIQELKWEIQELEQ
# 4H3974-bN = molecular target: T54, 4H3974-bN; test: two-hybrid library CCNG1
# T54 chain: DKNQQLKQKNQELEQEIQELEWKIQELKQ
# 4H570-bN = molecular target: T55, 4H570-bN; test: two-hybrid library CCNG1
# T55 chain: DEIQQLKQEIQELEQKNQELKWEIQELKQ
# 4H584-bN = molecular target: T56, 4H584-bN; test: two-hybrid library CCNG1
# T56 chain: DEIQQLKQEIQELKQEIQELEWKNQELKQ
# 4H619-bN = molecular target: T57, 4H619-bN; test: two-hybrid library CCNG1
# T57 chain: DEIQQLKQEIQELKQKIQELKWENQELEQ
# 4H850-bN = molecular target: T58, 4H850-bN; test: two-hybrid library CCNG1
# T58 chain: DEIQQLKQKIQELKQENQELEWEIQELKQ
# 4H906-bN = molecular target: T59, 4H906-bN; test: two-hybrid library CCNG1
# T59 chain: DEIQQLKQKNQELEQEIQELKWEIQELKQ
binder,measurement,setting,value
DEIAALKAEIAALEAKNAALEAKNAALKG [4H568-AA],interaction score,4H568-AA,-0.405
same,interaction score,4H687-AA,-1.51
same,interaction score,4H717-AA,-1.75
same,interaction score,4H797-AA,-1.39
same,interaction score,4H883-AA,2.12
same,interaction score,4H918-AA,-1.24
same,interaction score,4H953-AA,-1.78
same,interaction score,4H967-AA,-0.838
DKIAQLKQENAELKQEIAELEWKNAQLKQ [4H2760-bA],interaction score,4H2760-bA,0.895
same,interaction score,4H2760-bN,-1.33
same,interaction score,4H2859-bA,0.0768
same,interaction score,4H2931-bA,-0.0923
same,interaction score,4H3041-bA,0.518
same,interaction score,4H3297-bA,1.18
same,interaction score,4H3364-bA,0.448
same,interaction score,4H3381-bA,-0.726
same,interaction score,4H349-bA,-0.95
same,interaction score,4H56-bA,-1.54
same,interaction score,4H626-bA,-2.94
same,interaction score,4H730-bA,-0.287
same,interaction score,4H796-bA,-0.576
same,interaction score,4H932-bA,0.295
same,interaction score,4H949-bA,-1.14
same,interaction score,4H967-bN,-2.38
DEIAQLEQEIAELEQKNAELEWKNAQLKQ [4H56-bA],interaction score,4H56-bA,-0.593
same,interaction score,4H730-bA,-1.15
same,interaction score,4H796-bA,-0.775
same,interaction score,4H932-bA,-0.898
same,interaction score,4H949-bA,-0.628
same,interaction score,P7SHb,0.584
DKIAQLKQENAELEQEIAELEWENAQLKQ [4H2692-bA],interaction score,4H2692-bA,-0.461
same,interaction score,4H2717-bA,-0.0486
same,interaction score,4H2839-bA,-1.15
same,interaction score,4H2859-bH,-0.0963
same,interaction score,4H2915-bA,0.654
same,interaction score,4H3057-bA,-0.734
same,interaction score,4H319-bA,-0.498
same,interaction score,4H319-bN,0.192
same,interaction score,4H3277-bA,-0.458
same,interaction score,4H3298-bA,1.59
same,interaction score,4H348-bA,-1.58
same,interaction score,4H40-bA,-0.113
same,interaction score,4H477-bA,-1.06
same,interaction score,4H492-bA,2.26
same,interaction score,4H741-bA,-0.251
same,interaction score,O6-bP,0.95
DEIAALEAEYAALEAENAALEAEIAALEG [P1-AA-1HAA-Y],interaction score,P2-AA-1HAA-D,0.371
same,interaction score,P2-AA-1HAA-E,0.866
same,interaction score,P2-AA-1HAA-I,2.07
same,interaction score,P2-AA-1HAA-R,1.52
same,interaction score,P2-AA-1HAA-T,1.95
same,interaction score,P2-AA-1HAA-V,1.99
same,interaction score,P2-AA,2.07
DKNQQLEQEIQELKQKIQELEWENQELKQ [4H3172-bN],interaction score,4H3172-bN,-0.109
same,interaction score,4H3414-bN,0.0803
same,interaction score,4H3631-bN,1.27
same,interaction score,4H3638-bN,-0.362
same,interaction score,4H3817-bN,-0.519
same,interaction score,4H3974-bN,-0.234
same,interaction score,4H570-bN,-0.602
same,interaction score,4H584-bN,-0.681
same,interaction score,4H619-bN,0.271
same,interaction score,4H850-bN,-0.789
same,interaction score,4H906-bN,-1.5
DEIAALEAEVAALEAENAALEAEIAALEG [P1-AA-1HAA-V],interaction score,P2-AA-1HAA-D,1.95
same,interaction score,P2-AA-1HAA-E,1.98
same,interaction score,P2-AA-1HAA-I,2.11
same,interaction score,P2-AA-1HAA-T,2.16
same,interaction score,P2-AA-1HAA-V,2.01
same,interaction score,P2-AA,2.01
